Data on three molecules can be found in patent publication US20130071431A1, “Method for Preserving Polypeptides Using A Sugar and Polyethyleneimine” (Stabilitech Ltd., priority 2008, published 2013).

Data set [1] in a line: HRP activity assay (OPD/H2O2) after freeze-drying and heat-freeze cycles. The data set is classed as biochemical. As for the experimental part: Type IV horse radish peroxidase (HRP, Sigma-Aldrich) was diluted to 1 μg/ml in:
The PEI was obtained from Sigma (P3143, Mn 60,000). The PEI concentration was based on Mn. 10×100 μl volumes of each of the above solutions were prepared in 5 ml freeze-drying vials. Five replicates of each solution were freeze-dried from minus 32° C. over a 3 day cycle on a VirTis Advantage laboratory freeze-dryer using the protocol described in Example 6.
One vial from each solution of the liquid and dried samples was placed at 4° C. while the rest were frozen to −20° C. Samples from each of the liquid and dry solutions were subjected to 2, 4, and 6 heat-freeze cycles by removing them from the −20° C. freezer and placing them in an incubator set at 37° C. for 4 hours before replacing them in the freezer for 20 hrs 2, 4 and 6 times. 1 vial of each was retained at −20° C. as a control.
When the cycling was completed all the samples, including the −20° C. and 4° C. maintained non-cycled controls were allowed to equilibrate to room temperature. The freeze-dried samples were then reconstituted with 100 μl/vial of deionised water at room temperature.
Triplicate 10 μl samples were removed from each vial into wells of a flat bottomed ELISA plate (Nunc Maxisorb). To each well was then added 50 ul of a chromogen/substrate solution containing 0.4 mg/ml orthophenylene diamine (OPD) and 0.4 ul/ml 30% hydrogen peroxide (H2O2). Colour was allowed to develop before the reaction was stopped by the addition of 50 μl/well of 1M sulphuric acid (H2SO4). Absorbance was measured at 490 nm on a BioTek Synergy HT spectrophotometer and plotted as optical density (OD).

Data set [2] is described as follows: Beta-galactosidase assay with x-gal (Example 11). The data set is classed as biochemical. Particulars: 1M Suc, 100 mM Raf. As for the experimental part: Excipients mixtures containing β-galactosidase were prepared according to the table below and vortexed. 10 units of β-galactosidase were added to each vial. 200 μl of the vortexed mixture was placed in each appropriately labelled 5 ml glass vials. PEI was obtained from Sigma (P3143, Mn 60,000).
The condenser chamber was −70° C. However there was no shelf control on the freeze-drying unit.
Following freeze-drying, vials were reconstituted in 1 ml PBS. 100 μl of the resulting solution from each vial was added in duplicate (giving a total of 6 readings per excipient type) to each well of a flat bottom 96 well plate. The substrate x-gal was added as according to the manufacturer's instructions. Briefly, a stock solution of 20 mg/ml was made in DMSO and used at a 1 mg/ml working concentration. 100 μl was added to each well and the solution allowed to develop over 10 minutes. Following development, absorbance was measured at 630 nm on a synergy HT microplate. Background from blank wells was then subtracted from all the readings and results assessed using Prism Graphpad.

Data set [3] has as its system HL-60 cells (phospho-ERK1/ERK2). Put plainly: Cell-based ELISA of phosphorylated ERK1/ERK2 in HL-60 cells. The procedure: Sucrose solution was prepared by adding 32 g sucrose powder to 32 ml PBS in a 50 ml falcon tube to give a final volume of 52 ml correlating to a final concentration of 61.54%. The solution was gently heated in a microwave to assist initial solvation but thereafter stored at 4° C.
Raffinose solution was prepared by adding 4 g raffinose to 8 ml PBS in a 50 ml falcon tube to give a final volume of 10.2 ml corresponding to a final concentration of 39.2%. The solution was heated in a microwave to allow complete solvation.
To produce the final sugar mix, the sucrose and raffinose solutions described above were mixed in a 4:1 ratio. In practise, 32 ml sucrose solution was mixed with 8 ml raffinose solution. Once composed, sugar mix was stored at 4° C. and suffered no precipitation.
6 g of PEI (50% w/v) was added to 500 ml PBS to make 6 mg/ml then diluted 1 in 10 to make 600 ug/ml. 600 μg/ml was then diluted to make 100 μg/ml solution of PEI. Serial 1 in 10 dilutions were prepared in PBS to a concentration of 0.01 μg/ml. For final concentrations of PEI refer to Table 2 below. Concentrations were calculated based on Mn.
10 μg of 98% purified recombinant human G-CSF was reconstituted in 1 ml of PBS and diluted to 0.2 ng/ml in PBS (1 in 50,000 dilution), with a starting concentration 10 μg/ml. The G-CSF was aliquoted in 15 μl in Eppendorf tubes and stored at −20° C. for further use.
First dilution: 10 μl of G-CSF at 10 μg/ml was added to 990 μl of PBS (1 in 100 dilutions). Second dilution: 10 μl of 1 in 100 dilutions of G-CSF was added to 4.99 ml of PBS (1 in 500 dilutions). For final concentrations of G-CSF refer to Table 2.
Excipients were prepared according to Table 2. The final concentration of G-CSF was 0.2 ng/ml per vial. The excipients were vortexed to mix and 100 μl placed in each appropriately labelled 5 ml glass vial. Samples were freeze dried by the VirTis Advantage freeze dryer for approximately 3 days.
Samples were prepared as 100 μl aliquots. Freeze-dried samples were resuspended in 100 μl of water.
The ELISA assay method described below was followed as general assay procedure of cell base assay's kit (R&D Systems).
HL-60 cells were maintained in phenol red containing RPMI 1640 supplemented with 20% foetal bovine serum (FBS), Glutamine and Penicillin Streptomycin. HL-60 cells were passaged weekly and medium was replenished every 2-3 days.
The HL-60 (passage three) were transferred to a centrifuge tube and spun down at 1300 rpm, for 5 minutes at 4° C. The supernatant was poured off into a T-75 flask. The pellet was resuspended in 10 ml cold media.
200 μl of cell suspension was transferred into an Eppendorf tube by using a 5 ml pipette. 100 μl of cell suspension was added to 100 μl of trypan blue into another Eppendorf tube and mixed. […]

In data set [4] the test system is HL60 cells (ERK1/2 phosphorylation). Put plainly: HL60 cell stimulation assay, immunoblot of phosphorylated and total ERK1/2. The format is cell-based. The procedure: A lyophilised sample of G-CSF was reconstituted to a concentration of 10 μg/ml. 160 μl of sucrose (1.82M) and 40 μl of raffinose (0.75M) were mixed with 50 μl of PEI (at a concentration of 150 nM based on Mn) to complete the preservation mixture. 50 μl of the reconstituted G-CSF solution was added and mixed well.
100 μl aliquots of the final mixture was distributed into separate vials, and frozen or freeze-dried. Lyophilisation was carried out overnight as described in Example 1. […] Following incubation, the samples were reconstituted in RPMI prior to use.
HL60 cells (shown to be mycoplasma free) were maintained in phenol red containing RPMI 1640 supplemented with 10% foetal bovine serum (FBS) and 2 mM glutamine. Cells were passaged weekly and medium was replenished every 2-3 days.
For stimulation assays HL60 cells were harvested and transferred to serum free medium at a density of 5×10^5 perwell of a 6 well plate. After 24 hours cells were stimulated for 5 minutes with the treatments shown in FIG. 2 (100 ng/ml G-CSF) and as indicated below:
Whole cell extracts were resolved by SDS-PAGE and then transferred to nylon membranes, which were immunoprobed with antibodies against phosphorylated and total ERK1/2.
Cell suspensions were harvested (1000 rpm for 5 minutes) and washed with ice-cold PBS. Cell pellets were then lysed in extraction buffer (1% (v/v) Triton X100, […], pH 7.4, 5 mM EDTA, 50 mM NaCl, 50 mM sodium fluoride 2 mM Na3VO4 and 1 tablet of Complete™ inhibitor mix (Boehringer) per 10 ml of buffer) and homogenised by passage through a 26-gauge needle 6 times. The lysate was incubated on ice for 10 minutes then clarified by centrifugation (14,000 rpm for 10 minutes at 4° C.). The protein concentration was then quantified using the […] (Biorad, Inc.). Equal amounts of protein ([…]) were resolved by SDS-PAGE (10% gels) and then subjected to immunoblot analysis. Antigen-antibody interactions were detected with ECL (Pierce, UK).
Background: A western blot detects proteins with antibodies after separation by electrophoresis.

[5] abbreviates: native (untreated) G-CSF, 100 ng/ml, 5 minutes, serum starved HL60 cells.

For “HRP: Type IV horse radish peroxidase (HRP, Sigma-Aldrich)”, the “HRP activity (OD 490 nm)” value in data set [1] (1M Suc/100 mM Raf with or without 16.6 nM PEI versus PBS alone, all treatments and storage conditions) is “better maintained”. In addition, the “HRP activity after heat/freeze cycles” value in data set [1] (excipient-treated samples, 6 heat/freeze cycles (37° C. 4 hours / −20° C. 20 hrs)) is reported as “still maintained more HRP activity than unchallenged samples in PBS”. For the same molecule, the “loss of HRP activity” value in data set [1] (sugars, especially in combination with PEI, at the initial freeze-drying stage) is reported as “significantly reduces loss of HRP activity”.

Regarding “β-galactosidase: β-galactosidase enzyme (Sigma)”, the “β-galactosidase activity following freeze-drying” value is on record as “further enhanced” in data set [2] (13.3 μM PEI, compared to sucrose/raffinose alone) and “high in sucrose/raffinose excipients compared to PBS” in data set [2] (no PEI, compared to PBS).

B1: G-CSF: human recombinant G-CSF (Sigma in Example 2; MBL JM-4094-10 in Examples 14 and 16) (protein, UniProt P09919 31-207, looked up)
Granulocyte …: TPLGPASSLPQSFLLKCLEQVRKIQGDGAALQEKLVSECATYKLCHPEELVLLGHSLGIPWAPLSSCPSQALQLAGCLSQLHSGLFLYQGLLQALEGISPELGPTLDTLQLDVADFATTIWQQMEELGMAPALQPTQGAMPAFASAFQRRAGGVLVASHLQSFLEVSYRVLRHLAQP
Regarding B1, the “level of phosphorylated ERK1/ERK2” value in data set [3] (1M Suc, 0.1M Raf with 1.6 μM, 0.16 μM or 0.016 μM PEI, freeze dried, heat treated at 56° C. (15 min, 1 h, 2 h, O/N)) is listed as “higher level of phosphorylated ERK1/ERK2”. In addition, the “protection of G-CSF (ERK 1/2 phosphorylation)” value in data set [3] (1M Suc, 0.1M Raf with 1.6 μM, 0.16 μM or 0.016 μM PEI, freeze dried, 37° C. or 56° C. for 1 week) is “protects and stabilises G-CSF”. For the same molecule, the “efficacy (phosphorylated ERK1/ERK2)” value in data set [3] (freeze-dried with high level of PEI, heat treated at 56° C.) was “greater efficacy”. In addition, in data set [3] (sugars with PEI final concentration of 1.6 μM, freeze dried, 37° C. and 56° C. for 1 week), the “protection of G-CSF (ERK 1/2 phosphorylation)” value is recorded as “highest level of protection”. The “potency (ERK1/2 phosphorylation) compared to untreated G-CSF” value in data set [4] (G-CSF mixed with excipient and freeze-dried (FIG. 2C)) is “maintain the potency”. Moreover, the “activity (ERK1/2 phosphorylation) compared to untreated G-CSF” value in data set [4] (G-CSF mixed with excipient then heat treated 37° C. for 72 hours, not freeze-dried (FIG. 2B)) is recorded as “marked loss of activity”. Also, the “protection against heat inactivation (ERK1/2 phosphorylation)” value in data set [4] (G-CSF mixed with excipient, freeze-dried and heat treated 37° C. for 72 hours (FIG. 2D)) was “protect G-CSF against heat inactivation”. Further, in data set [4] (setting [5]), the ERK1/2 phosphorylation entry is “enhance phosphorylation” and the “total ERK1/2 levels” value is listed as “without any effect”.
